Experimental data taken from patent US20240117019A1 (UNIVERSITY OF GEORGIA RESEARCH FOUNDATION, published 2024).

Legend:
[1] = target: T1, MBP-PspA fragment 1-438 fusion protein (Streptococcus pneumoniae strain TCH8431 …, UniProt P0AEX9 27-392 = MBP); assay: ELISA on coated MBP-PspA fragment, OD405
T1 construct: not shown: C-terminal His-tag encoded by the reverse primer PspA438-R

[2] = target: T2, MBP-PspA fragment 1-512 fusion protein (Streptococcus pneumoniae strain TCH8431 …, UniProt P0AEX9 27-392 = MBP); assay: ELISA on coated MBP-PspA fragment, OD405
T2 construct: not shown: C-terminal His-tag encoded by the reverse primer PspA512-R

[3] = target: T3, recombinant His-tagged full-length pneumococcal surface protein A (PspA) from strain TCH8431 (serotype 19A) (Streptococcus pneumoniae strain TCH8431 …); assay: ELISA on coated recombinant PspA, non-linear regression fit
T3 construct: range 1-725; also called recombinant PspA

[4] = target: T4, PspA protein of pneumococcal strain TCH8431 (serotype 19A), native, in lysates or on whole bacteria (Streptococcus pneumoniae strain TCH8431 …); assay: ELISA on plates coated with fixed whole bacteria, TCH8431 (19A), OD405
T4 construct: whole, on cells; also called PspA protein from strain TCH8431

B1: human monoclonal antibody PspA16 (antibody, V domains shown)
VH: QVQLVQSGPDVKKPGASVKVSCKTSGYTFTGYYMHWVRQAPGQGLEWMGWVNPNTGGTSYAQKFQGRVTVTRDTSISTVYMELSALGSDDTAIYFCARAWAPGAEYLHHWGQGTLVTVSS
VL: EIVMTQSPGTLSLSPGETATLSCRASQSVGSSYLAWYQQKPGQAPRLLIFGASNRATGIPVRFSASGSGTDFTLTISRLEPEDFAVYYCQQHDHSPFTFGPGTKVDLK
notes: also called mAb PspA16
EC50 (read off the curve) [1]: ~0.04 µg/mL | EC50 (read off the curve) [2]: ~0.04 µg/mL | EC50 [3]: 0.026 µg/mL | EC50 (read off the curve) [4]: ~0.08 µg/mL
